Laboratory results: the supplement of paper PMC5998384

Legend:
HeLa Kyoto [1] = assay: melting temperature (median over replicates), in situ; higher = more thermally stable
HeLa Kyoto [2] = assay: solubility in G1/S (NP-40 vs SDS abundance) (log2 ratio); higher = more soluble; conditions: cell cycle stage: G1/S
HeLa Kyoto [3] = assay: thermal stability score vs G1/S (z-score of summed log2 fold changes over temperatures); higher = more thermally stable than in G1/S
HeLa Kyoto [4] = assay: solubility change mitosis vs G1/S (difference of NP-40 vs SDS log2 ratios) (log2 ratio difference); higher = more soluble in mitosis
[5] = cell cycle stage: early G1 (4.5 h after nocodazole release)
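For melting temperature (median over replicates), in situ in this document: HeLa Kyoto cells synchronized by double thymidine or nocodazole block, proteins quantified by TMT10plex mass spectrometry, three independent biological replicates.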
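For solubility change mitosis vs G1/S (difference of NP-40 vs SDS log2 ratios) in this document: synchronized HeLa Kyoto cells (double thymidine block for G1/S, nocodazole release for mitosis), protein amounts in NP-40 versus SDS lysates quantified by mass spectrometry, three biological replicates.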
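For solubility in G1/S (NP-40 vs SDS abundance) in this document: HeLa Kyoto cells arrested at G1/S by double thymidine block, proteins quantified by TMT10plex mass spectrometry in mild NP-40 versus SDS extracts, three biological replicates.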
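For thermal stability score vs G1/S (z-score of summed log2 fold changes over temperatures) in this document: synchronized HeLa Kyoto cells, proteins quantified by TMT10plex mass spectrometry, three biological replicates, mitosis taken 0.5 h after nocodazole release, G1/S directly after double thymidine block.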

Sequence	melting temperature (HeLa Kyoto [1]; cell cycle stage: mitosis) [°C]	solubility in G1/S (log2) (HeLa Kyoto [2])	thermal stability score (HeLa Kyoto [3]; [5])	thermal stability score (HeLa Kyoto [3]; cell cycle stage: mitosis)	solubility change mitosis (log2) (HeLa Kyoto [4])	melting temperature (HeLa Kyoto [1]; cell cycle stage: G1/S) [°C]
MVADPPRDSKGLAAAEPTANGGLALASIEDQGAAAGGYCGSRDQVRRCLRANLLVLLTVVAVVAGVALGLGVSGAGGALALGPERLSAFVFPGELLLRLLRMIILPLVVCSLIGGAASLDPGALGRLGAWALLFFLVTTLLASALGVGLALALQPGAASAAINASVGAAGSAENAPSKEVLDSFLDLARNIFPSNLVSAAFRSYSTTYEERNITGTRVKVPVGQEVEGMNILGLVVFAIVFGVALRKLGPEGELLIRFFNSFNEATMVLVSWIMWYAPVGIMFLVAGKIVEMEDVGLLFARLGKYILCCLLGHAIHGLLVLPLIYFLFTRKNPYRFLWGIVTPLATAFGTSSSSATLPLMMKCVEENNGVAKHISRFILPIGATVNMDGAALFQCVAAVFIAQLSQQSLDFVKIITILVTATASSVGAAGIPAGGVLTLAIILEAVNLPVDHISLILAVDWLVDRSCTVLNVEGDALGAGLLQNYVDRTESRSTEPELIQVKSELPLDPLPVPTEEGNPLLKHYRGPAGDATVASEKESVM [SLC1A5]	65.7	0.196	-1.47	-1.94	-0.123	
MVAGSDAGRALGVLSVVCLLHCFGFISCFSQQIYGVVYGNVTFHVPSNVPLKEVLWKKQKDKVAELENSEFRAFSSFKNRVYLDTVSGSLTIYNLTSSDEDEYEMESPNITDTMKFFLYVLESLPSPTLTCALTNGSIEVQCMIPEHYNSHRGLIMYSWDCPMEQCKRNSTSIYFKMENDLPQKIQCTLSNPLFNTTSSIILTTCIPSSGHSRHRYALIPIPLAVITTCIVLYMNGILKCDRKPDRTNSN [CD58]		-0.813	-0.387	-1.23	0.319	55.3
MVDLTQVMDDEVFMAFASYATIILSKMMLMSTATAFYRLTRKVFANPEDCVAFGKGENAKKYLRTDDRVERVRRAHLNDLENIIPFLGIGLLYSLSGPDPSTAILHFRLFVGARIYHTIAYLTPLPQPNRALSFFVGYGVTLSMAYRLLKSKLYL [MGST1]	58	-0.321	0.0202	-1.77	-0.17	56.8
MVEADRPGKLFIGGLNTETNEKALETVFGKYGRIVEVLLIKDRETNKSRGFAFVTFESPADAKDAARDMNGKSLDGKAIKVEQATKPSFERGRHGPPPPPRSRGPPRGFGAGRGGSGGTRGPPSRGGHMDDGGYSMNFNMSSSRGPLPVKRGPPPRSGGPSPKRSAPSGLVRSSSGMGGRAPLSRGRDSYGGPPRREPLPSRRDVYLSPRDDGYSTKDSYSSRDYPSSRDTRDYAPPPRDYTYRDYGHSSSRDDYPSRGYGDRDGYGRDRDYSDHPSGGSYRDSYESYGNSRSAPLTRGPPPSYGGSSRYDDYSSSRDGYGGSRDSYSSSRSDLYSSCDRVGRQERGLPPSVERGYPSSRDSYSSSSRGAPRGAGPGGSRSDRGGGRSRY [RBMXL1]	51	-0.598	-0.08	0.0725	0.637	46.5
MVEPGQDLLLAALSESGISPNDLFDIDGGDAGLATPMPTPSVQQSVPLSALELGLETEAAVPVKQEPETVPTPALLNVRQQPPSTTTFVLNQINHLPPLGSTIVMTKTPPVTTNRQTITLTKFIQTTASTRPSVSAPTVRNAMTSAPSKDQVQLKDLLKNNSLNELMKLKPPANIAQPVATAATDVSNGTVKKESSNKEGARMWINDMKMRSFSPTMKVPVVKEDDEPEEEDEEEMGHAETYAEYMPIKLKIGLRHPDAVVETSSLSSVTPPDVWYKTSISEETIDNGWLSALQLEAITYAAQQHETFLPNGDRAGFLIGDGAGVGKGRTIAGIIYENYLLSRKRALWFSVSNDLKYDAERDLRDIGAKNILVHSLNKFKYGKISSKHNGSVKKGVIFATYSSLIGESQSGGKYKTRLKQLLHWCGDDFDGVIVFDECHKAKNLCPVGSSKPTKTGLAVLELQNKLPKARVVYASATGASEPRNMAYMNRLGIWGEGTPFREFSDFIQAVERRGVGAMEIVAMDMKLRGMYIARQLSFTGVTFKIEEVLLSQSYVKMYNKAVKLWVIARERFQQAADLIDAEQRMKKSMWGQFWSAHQRFFKYLCIASKVKRVVQLAREEIKNGKCVVIGLQSTGEARTLEALEEGGGELNDFVSTAKGVLQSLIEKHFPAPDRKKLYSLLGIDLTAPSNNSSPRDSPCKENKIKKRKGEEITREAKKARKVGGLTGSSSDDSGSESDASDNEESDYESSKNMSSGDDDDFNPFLDESNEDDENDPWLIRKDHKKNKEKKKKKSIDPDSIQSALLASGLGSKRPSFSSTPVISPAPNSTPANSNTNSNSSLITSQDAVERAQQMKKDLLDKLEKLAEDLPPNTLDELIDELGGPENVAEMTGRKGRVVSNDDGSISYESRSELDVPVEILNITEKQRFMDGDKNIAIISEAASSGISLQADRRAKNQRRRVHMTLELPWSADRAIQQFGRTHRSNQVTAPEYVFLISELAGEQRFASIVAKRLESLGALTHGDRRATESRDLSRFNFDNKYGRNALEIVMKSIVNLDSPMVSPPPDYPGEFFKDVRQGLIGVGLINVEDRSGILTLDKDYNNIGKFLNRILGMEVHQQNALFQYFADTLTAVVQNAKKNGRYDMGILDLGSGDEKVRKSDVKKFLTPGYSTSGHVELYTISVERGMSWEEATKIWAELTGPDDGFYLSLQIRNNKKTAILVKEVNPKKKLFLVYRPNTGKQLKLEIYADLKKKYKKVVSDDALMHWLDQYNSSADTCTHAYWRGNCKKASLGLVCEIGLRCRTYYVLCGSVLSVWTKVEGVLASVSGTNVKMQIVRLRTEDGQRIVGLIIPANCVSPLVNLLSTSDQSQQLAVQQKQLWQQHHPQSITNLSNA [SBNO1]	51.4	0.0971	1.19	2.1	-0.158	50.9
MVGQMYCYPGSHLARALTRALALALVLALLVGPFLSGLAGAIPAPGGRWARDGQVPPASRSRSVLLDVSAGQLLMVDGRHPDAVAWANLTNAIRETGWAFLELGTSGQYNDSLQAYAAGVVEAAVSEELIYMHWMNTVVNYCGPFEYEVGYCERLKSFLEANLEWMQEEMESNPDSPYWHQVRLTLLQLKGLEDSYEGRVSFPAGKFTIKPLGFLLLQLSGDLEDLELALNKTKIKPSLGSGSCSALIKLLPGQSDLLVAHNTWNNYQHMLRVIKKYWLQFREGPWGDYPLVPGNKLVFSSYPGTIFSCDDFYILGSGLVTLETTIGNKNPALWKYVRPRGCVLEWVRNIVANRLASDGATWADIFKRFNSGTYNNQWMIVDYKAFIPGGPSPGSRVLTILEQIPGMVVVADKTSELYQKTYWASYNIPSFETVFNASGLQALVAQYGDWFSYDGSPRAQIFRRNQSLVQDMDSMVRLMRYNDFLHDPLSLCKACNPQPNGENAISARSDLNPANGSYPFQALRQRSHGGIDVKVTSMSLARILSLLAASGPTWDQVPPFQWSTSPFSGLLHMGQPDLWKFAPVKVSWD [PLBD2]	55.9	0.298	-1.75	-1.5	-0.0289	56.6
MVGSALRRGAHAYVYLVSKASHISRGHQHQAWGSRPPAAECATQRAPGSVVELLGKSYPQDDHSNLTRKVLTRVGRNLHNQQHHPLWLIKERVKEHFYKQYVGRFGTPLFSVYDNLSPVVTTWQNFDSLLIPADHPSRKKGDNYYLNRTHMLRAHTSAHQWDLLHAGLDAFLVVGDVYRRDQIDSQHYPIFHQLEAVRLFSKHELFAGIKDGESLQLFEQSSRSAHKQETHTMEAVKLVEFDLKQTLTRLMAHLFGDELEIRWVDCYFPFTHPSFEMEINFHGEWLEVLGCGVMEQQLVNSAGAQDRIGWAFGLGLERLAMILYDIPDIRLFWCEDERFLKQFCVSNINQKVKFQPLSKYPAVINDISFWLPSENYAENDFYDLVRTIGGDLVEKVDLIDKFVHPKTHKTSHCYRITYRHMERTLSQREVRHIHQALQEAAVQLLGVEGRF [FARS2]	49.5	-0.187	0.911	1.74	-0.0528	49.7
MVHIKKGELTQEEKELLEVIGKGTVQEAGTLLSSKNVRVNCLDENGMTPLMHAAYKGKLDMCKLLLRHGADVNCHQHEHGYTALMFAALSGNKDITWVMLEAGAETDVVNSVGRTAAQMAAFVGQHDCVTIINNFFPRERLDYYTKPQGLDKEPKLPPKLAGPLHKIITTTNLHPVKIVMLVNENPLLTEEAALNKCYRVMDLICEKCMKQRDMNEVLAMKMHYISCIFQKCINFLKDGENKLDTLIKSLLKGRASDGFPVYQEKIIRESIRKFPYCEATLLQQLVRSIAPVEIGSDPTAFSVLTQAITGQVGFVDVEFCTTCGEKGASKRCSVCKMVIYCDQTCQKTHWFTHKKICKNLKDIYEKQQLEAAKEKRQEENHGKLDVNSNCVNEEQPEAEVGISQKDSNPEDSGEGKKESLESEAELEGLQDAPAGPQVSEE [ANKMY2]		0.124	-0.173	-0.528	-0.16	50.1
MVKEQFRETDVAKKISHICFGMKSPEEMRQQAHIQVVSKNLYSQDNQHAPLLYGVLDHRMGTSEKDRPCETCGKNLADCLGHYGYIDLELPCFHVGYFRAVIGILQMICKTCCHIMLSQEEKKQFLDYLKRPGLTYLQKRGLKKKISDKCRKKNICHHCGAFNGTVKKCGLLKIIHEKYKTNKKVVDPIVSNFLQSFETAIEHNKEVEPLLGRAQENLNPLVVLNLFKRIPAEDVPLLLMNPEAGKPSDLILTRLLVPPLCIRPSVVSDLKSGTNEDDLTMKLTEIIFLNDVIKKHRISGAKTQMIMEDWDFLQLQCALYINSELSGIPLNMAPKKWTRGFVQRLKGKQGRFRGNLSGKRVDFSGRTVISPDPNLRIDEVAVPVHVAKILTFPEKVNKANINFLRKLVQNGPEVHPGANFIQQRHTQMKRFLKYGNREKMAQELKYGDIVERHLIDGDVVLFNRQPSLHKLSIMAHLARVKPHRTFRFNECVCTPYNADFDGDEMNLHLPQTEEAKAEALVLMGTKANLVTPRNGEPLIAAIQDFLTGAYLLTLKDTFFDRAKACQIIASILVGKDEKIKVRLPPPTILKPVTLWTGKQIFSVILRPSDDNPVRANLRTKGKQYCGKGEDLCANDSYVTIQNSELMSGSMDKGTLGSGSKNNIFYILLRDWGQNEAADAMSRLARLAPVYLSNRGFSIGIGDVTPGQGLLKAKYELLNAGYKKCDEYIEALNTGKLQQQPGCTAEETLEALILKELSVIRDHAGSACLRELDKSNSPLTMALCGSKGSFINISQMIACVGQQAISGSRVPDGFENRSLPHFEKHSKLPAAKGFVANSFYSGLTPTEFFFHTMAGREGLVDTAVKTAETGYMQRRLVKSLEDLCSQYDLTVRSSTGDIIQFIYGGDGLDPAAMEGKDEPLEFKRVLDNIKAVFPCPSEPALSKNELILTTESIMKKSEFLCCQDSFLQEIKKFIKGVSEKIKKTRDKYGINDNGTTEPRVLYQLDRITPTQVEKFLETCRDKYMRAQMEPGSAVGALCAQSIGEPGTQMTLKTFHFAGVASMNITLGVPRIKEIINASKAISTPIITAQLDKDDDADYARLVKGRIEKTLLGEISEYIEEVFLPDDCFILVKLSLERIRLLRLEVNAETVRYSICTSKLRVKPGDVAVHGEAVVCVTPRENSKSSMYYVLQFLKEDLPKVVVQGIPEVSRAVIHIDEQSGKEKYKLLVEGDNLRAVMATHGVKGTRTTSNNTYEVEKTLGIEAARTTIINEIQYTMVNHGMSIDRRHVMLLSDLMTYKGEVLGITRFGLAKMKESVLMLASFEKTADHLFDAAYFGQKDSVCGVSECIIMGIPMNIGTGLFKLLHKADRDPNPPKRPLIFDTNEFHIPLVT [POLR3A]	49.9	-0.268	0.905	2.38	-0.101	49.1
